According to the supplement of paper PMC10567573:

B1: RTN2 (parent)
chain: SERPLEDLRLRLDHLGWVARGTGS
B2: SCNN1D (parent)
chain: FYRLYQDLETHRLPCTSRCPRPCR

Variants of: B1
Assay: protein stability index of a GFP-peptide fusion (GPS, HEK-293T) (PSI 1-6); higher = more stable
Conditions: c terminus: a fixed tail appended
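Note: lentivirally expressed fusions sorted by FACS into six bins by GFP to DsRed ratio, PSI derived from sequencing read proportions per bin multiplied by bin number.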

Protein stability index: each site, then its substitutions
L8: V 1.64, I 2.44, N 2.13, Y 2.35, Q 1.47, W 1.87, F 1.96, H 2.16, D 2.32, K 2.83
L15: W 3.5, E 2.25, I 2.28, C 2.15, G 2.97, Q 2.1, Y 2.59, F 2.8
R20: E 4.02, S 4.23, P 3.31, C 1.86, T 3.14, N 3.55, K 3.19, F 2.36, H 2.77, L 1.85, Y 2.34
L5: I 2.52, S 2, Y 2.53, D 3.44, W 1.97, N 1.48, V 4.48, F 3.45, T 2.38
H14: P 2.54, W 1.92, F 1.51, R 2.36, T 1.99, I 1.99, L 1.93, Q 1.73
G23: P 3.34, I 3.35, T 3.04, N 2.98, S 2.61, F 2.52, M 1.87, C 2.4, L 2.44, A 3.6, K 3.55, E 3.99
G21: C 1.6, Q 2.78, P 2.33, M 1.96, K 3.71, T 2.08, W 1.68, Y 2.42, N 2.83
W17: E 4.11, Y 3.48, Q 4.42, A 4.49, H 3.9, G 4.08
L10: G 3.89, A 2.46, N 2.69, M 2.39, H 2.38, E 3.15, D 2.72, T 1.93, S 3.19, C 2.73
P4: E 2.61, V 1.26, W 1.73, Q 2.95, K 2.38, F 3.68, L 1.94, R 1.59
S24: N 3.26, Q 2.61, H 2.03, W 2.11, D 2.59, V 3.15, R 2.36, E 4.04, Y 2.12, T 2.71
E2: I 2.12, L 1.42, S 2.43, G 2.28, A 1.99
V18: N 3.81, I 3.5, E 4.85, R 4.14, M 3.73, Q 3.02, W 2.8, P 3.35, T 2.86, H 3.31, Y 2.67
T22: I 2.48, N 3.95, R 3.6, M 2, G 2.23, W 3.11, F 1.3, L 2.11
D13: F 1.07, Y 2.07, C 2.43, T 2.34, G 2.87
R3: A 3.86, W 1.62, C 2.4, L 2.49, K 1.63, Q 2, G 2.19, P 3.56, Y 1.86, F 2.18, S 2.07, N 2.48
A19: W 2.3, G 3.39, D 3.31, K 3.34, C 2.58, T 3.5
E6: Q 2.49, G 2.35, D 1.68, S 1.93, H 2.34, W 1.62, A 2.27, M 2.29, C 2.72, T 1.29, K 1.53, P 2.15, F 2.78, N 2.24
L12: T 3.51, Y 3.11, I 2.02, W 2.38, P 2.47, A 2.97
G16: Y 2.9, I 1.75, P 2.1, F 1.98, E 3.03, Q 3.01, A 2.58
R11: T 2.28, W 1.4, A 1.92, Y 2.7, C 1.52, N 2.58, F 1.79, I 1.41
S1: E 2.74, G 2.87, K 2.61, I 3.02, W 2.46, C 1.88
D7: G 1.96, H 1.87, V 1.9, R 1.79, W 1.29, N 1.99, M 1.02, T 1.88
R9: E 2.85, C 3.37, A 2.34, I 2.17, T 2.27, S 1.2, H 2.56, D 2.31, V 3.31, M 1.42, K 1.92, N 2.84

Variants of: B2
Assay: as above
Conditions: c terminus: a fixed tail appended

Protein stability index, by site and new letter:
P20: I 2.22, K 2.57, F 2.83, A 1.98, D 1.81, C 2.51, N 2.13, Y 1.44, E 1.32, G 1.95, R 2.07, T 2.88, L 2.27, H 2.18, S 1.83
R21: E 2.22, L 2.21, D 1.83, Q 3.16, T 2.1, Y 2.71, S 1.88, F 1.96, P 2.26, W 2.46, N 1.68, V 1.63, M 1.25, H 3.38, G 2.71
R18: L 1.86, I 1.15, D 1.78, C 1.51, T 2.15, Y 1.78, V 1.4, N 2.18, S 1.94, P 1.74, H 1.91, F 1.79, G 2.54, M 2.29
P22: N 2.72, S 2.33, V 1.8, Q 2.5, M 1.5, H 2.38, K 2.18, R 2.39, T 2.25, E 2.27, F 1.8, I 1.72, G 2.15, W 1.13, Y 1.32, C 3.11
S17: V 4.43, H 2.33, K 1.96, N 2.15, L 1.5, I 1.85, R 2.56, Y 2.09, W 1.02, G 1.96, Q 2.45, M 1.86, T 2.61, P 2.46
C23: F 1.71, E 2.43, A 2.23, V 1.85, S 2.67, P 2.43, Y 2.33, N 1.91, M 2.41, D 3.36, T 2.37, I 2.11, H 2.17, Q 2.42, G 2.65
R24: S 2.13, H 1.69, N 1.61, W 1.3, I 1.65, P 2.35, Q 2.57, T 3.87, C 1.77, M 2.8, E 2.14, L 1.6, F 1.75, A 2.2, D 1.6, Y 1.67, K 2.65
C19: L 2.68, G 2.32, S 2.09, H 1.84, Y 1.88, W 3.18, E 2.66, A 1.94, K 1.96, V 2.1, T 3.26, P 2.03, D 2.03, Q 2.59, M 2.06, N 3.89, R 2.21, F 2.65, I 2.64
